One data set has as its target T1, Nectin-4 (Homo sapiens, UniProt Q96NY8).
T1 sequence (Q96NY8 32-510): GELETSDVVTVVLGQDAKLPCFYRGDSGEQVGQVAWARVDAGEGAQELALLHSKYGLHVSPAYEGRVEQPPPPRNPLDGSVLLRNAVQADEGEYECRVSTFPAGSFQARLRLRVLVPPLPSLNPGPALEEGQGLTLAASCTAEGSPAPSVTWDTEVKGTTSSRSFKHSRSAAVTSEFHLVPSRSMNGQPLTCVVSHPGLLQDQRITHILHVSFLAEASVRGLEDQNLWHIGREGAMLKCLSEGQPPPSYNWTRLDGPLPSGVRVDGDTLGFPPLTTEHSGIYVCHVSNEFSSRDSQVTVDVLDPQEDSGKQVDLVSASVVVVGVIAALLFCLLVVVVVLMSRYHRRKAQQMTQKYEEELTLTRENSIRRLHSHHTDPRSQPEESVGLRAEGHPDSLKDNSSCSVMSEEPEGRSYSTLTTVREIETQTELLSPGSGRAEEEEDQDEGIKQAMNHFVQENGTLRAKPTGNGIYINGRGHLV
Conditions: cited from earlier work.

Data set [1] has as its system HT-1376-cells ("Parental", which express Nectin-4). The data set is described as follows: In vivo efficacy in cell-line derived xenograft (CDX) model, HT-1376 parental. Also on record: species or system mouse. To be noted: 3 mg/kg IV QWx3; versus vehicle. The method, then:
In vivo efficacy study experiments were performed in tumor bearing athymic nude mice. […] Tumors were monitored for a minimum of 14 days prior to group stratification and study initiation dates.
Dose measurements for a sample injected dose were measured and confirmed on a gamma counter and corrected for decay. EV doses were calculated based on mouse weights and liquid concentration of prepared material. Indicated doses of vehicle, EV or radiolabeled C251 were prepared corresponding to the indicated administered dose levels per group. Doses were administered via tail vein injection while restrained and awake.
Animal monitoring: Tumor volume (caliper measurement) and body weight measurements for enrolled mice were performed twice a week for an initial planned monitoring period of 8 weeks. More frequent gross observations of mice were performed.
Hunan endpoints: Mice remained on study until they reached the end of the 8-week monitoring period or a number of pre-defined humane endpoints, including: • 1. An increase in tumor volume size that exceeds >1500 mm^3, or 20 mm in one dimension, or tumor becomes ulcerated or necrotic. • 2. A decrease in body weight ≥20% from maximum recorded weight. • 3. Any signs of pain or distress (i.e., consistent hunched posture, rough coat, squinted eyes, slowed gait). • 4. Tumors that compromise mobility or ability to eat or drink. • 5. BCS score ≤2. […]

The nature of data set [2]: In vivo biodistribution of 111In-labeled miniproteins by SPECT/CT, HT-1376 xenograft. Set-up: species or system mouse. Conditions: female, athymic nude, mouse, in vivo. In short, it runs like this:
(§1)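 Uptake in % ID/g from maximum intensity projections of SPECT/CT scans, with SPECT in activity units and CT windowed −500 to 4500 HU. Animals carried HT-1376 tumors, a human Nectin-4-expressing line, and were dosed with 111In-labeled miniproteins.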

The subject of a further data set is HT-1376 tumor xenograft. Described as above. Set-up: species or system mouse. To be noted: 111In-labeled, tumor, +4 h, HT-1376 xenograft mice. The gist of the method:
as §1

The test system of data set [3] is HT-1376 urothelial cancer cells. The data set is described as follows: In vitro cell cytotoxicity assay of 225Ac-radioconjugates (CellTiter-Glo). Format: cell-based, human. Conditions: compound radiolabeled with 225Ac, 24 h treatment, 4-5 day regrowth, HT-1376 cells. The procedure: Cytotoxicity to ^225Ac-radioconjugates was assessed in HT-1376 urothelial cancer cells. Cells were seeded in 96-well plates at densities of 250 to 1000 cells per well two days prior to treatment. On the day of treatment ^225Ac-radioconjugates were diluted in culture medium to concentrations ranging from 0,0001 to 100 μCi/mL and treatment solutions were incubated with cells for 24 h. At the end of the treatment period, the treatment solution was removed, and fresh culture medium was replenished for the regrowth period of the assay that lasted 4-5 day's. At the end of the regrowth period the culture medium was removed and viability was assessed by CellTiter-Glo (Promega, Waltham MA) luminescent assay and the plates were read on a Perkin Elmer Enspire multimode plate reader. Data were normalized to treatment controls and plotted as non-linear sigmoidal dose response curves to determine the effective concentration for 50% reduction in cell viability.
(Cellular ATP, detected with luciferase, serves as a proxy for viable cell number.)

Data set [4] has the same test system. The data set is described as follows: Radioligand binding of lutetium-177 radioconjugates, saturation and kinetic analysis. Set-up: species or system human. To be noted: lutetium-177 radioconjugates of PEG4-DOTA compounds, HT-1376 cells, global fit of association and dissociation. The procedure:
Radioligand binding was performed in HT-1376 urothelial cancer cells by method of saturation. Cells were seeded at 20,000 cells per well in 96-well format 48 h prior to assay. Lutetium-177-labeled radioconjugates of C215 and C117 were incubated with cells at 4° C. for 1 h at various increasing concentrations of radioligand. At the end of incubation, cells were washed three times with PBS and radioactivity was quantified by gamma counting as shown in FIGS. 4A-5B.
Radioligand binding was performed in HT-1376 urothelial cancer cells by method of kinetic analysis. Cells were seeded at 20,000 cells per well in 96-well format 48 h prior to assay. On the day of assay, culture medium was removed and PBS was added to cells. Association kinetics were measured at three concentrations of radioligand, and this was performed by the addition of lutetium-177 radioconjugates to cells at various time points from 1 to 60 minutes.

The conditions of data set [5]: previously published; cited from earlier work.
Where [6] appears, read: PhII trial, locally advanced or metastatic bladder cancer, 10.2 months median follow up.

Like-named read-outs stand apart in the source and are kept apart here. Bridges are numbered along the chain shown (N, C = ends). The star is where a group is joined. DOTA = O=C(O)CN1CCN(CC(=O)O)CCN(CC(=O)*)CCN(CC(=O)O)CC1; PEG4 = NCCOCCOCCOCCOCCC(=O)O

A word on the tissue uptake: it is the percentage of the injected dose found per gram of tissue. One may read the Kd as a measure of binding affinity in units of concentration.

On to enfortumab vedotin [EV], for which the “overall tumor objective response rate (ORR)” value with Nectin-4 (PhI study, patients previously treated with ICI therapy) was 42%. Further, in the data set with Nectin-4 (PhI study, patients with particularly high tumor burden (liver metastases)), the ORR is reported as 36%. In the data set with Nectin-4 (setting [6]), the ORR is reported as 44% and the “complete response rate (CRR)” value is 12%. Further, the Tumor volume result in data set [1] was “Some reduction in tumor volume”.
In data set [2], “{DOTA-PEG4}-CEYDEEFFTALKRLRGGDICYYIQAKFQYLPKLCIEEILDNLGCS-OH (disulfide 1-34, 20-44 (inferred)) [Compound C117]” came in with a tissue uptake at 4 h of 150 %ID/g and a tissue uptake at 24 h of 93.3 %ID/g. Besides, the “Data of Biodistribution (+4 h Tumor~% ID/g)” value in the data set on HT-1376 tumor xenograft amounted to 2.29 % ID/g. In data set [3], the “EC50 (microcurie/milliliter) for 225Ac radioconjugates” value was 0.014 microcurie/milliliter. The Kd in data set [4] is 2.64 nM.
enfortumab vedotin: the “Plasma terminal half-life (min)” value in data set [5] is 2,476.8 (1.72 days) min.
